The results in this text go back to PMC4661071.

The target in assay [1] is wild-type EPCR on stably transfected CHO745 cells (UniProt Q9UNN8). As to the kind of experiment: flow cytometry on cells.
The target in assay [2] is EPCR R81A on stably transfected CHO745 cells (UniProt Q9UNN8). As to the kind of experiment: flow cytometry on cells. On the technique in general: Flow cytometry measures light scatter and fluorescence of single cells or particles in a stream.
The target in assay [3] is recombinant soluble EPCR (extracellular region, residues 18–210), biotinylated (UniProt Q9UNN8). The assay can be described thus: BLI. A general note: BLI is a label-free optical method that tracks binding on a fibre tip over time.

For the substance “activated protein C (APC), unlabeled (from UniProt P04070 43-197; P04070 43-197) (enzyme)”, in assay [1], the mean fluorescence intensity (MFI) of APC labeling, without CIDR domains was 994 and the percent of CHO745-EPCR cells labeled for APC, without CIDR domains amounted to 76%.

Turning to “fluorescein-labelled activated protein C (Fl-APC) (from UniProt P04070 43-197; P04070 43-197) (enzyme)”, in assay [1], the MFI of Fl-APC, without CIDR domains is 1330 and the percent of cells that bound 50 µg/ml Fl-APC, without CIDR domains was 78%.

Turning to “Var19CIDRα1.1 recombinant protein (from UniProt A3R6S3 1-3373) (domain or fragment)”, in assay [2], the decrease of binding relative to wild type EPCR was 90%. In assay [1], this substance yielded an MFI of Fl-APC on the cells with 250 µg/ml of the CIDR domain (1329 without) of 746; a double positive cells (CIDR and Fl-APC) at 250 µg/ml of the CIDR domain of 69%.

In turn, “Var07CIDRα1.4 recombinant protein (domain or fragment)” yielded a decrease of binding relative to wild type EPCR in assay [2] of 80%. In assay [1], this substance gave an MFI of Fl-APC on the cells with 100 µg/ml of the CIDR domain (1329 without) of 385; a double positive cells (CIDR and Fl-APC) at 100 µg/ml of the CIDR domain of 28%.

Take “Var06CIDRα1.1 recombinant protein (domain or fragment)”: in assay [1], the MFI of Fl-APC on the cells with 250 µg/ml of the CIDR domain (1329 without) was 429; the double positive cells (CIDR and Fl-APC) at 250 µg/ml of the CIDR domain stood at 62%. Besides, the Kd (usually the constant that tells how readily two partners part at equilibrium) in assay [3] is 98 nM.
